B1: Human recombinant tubulin β-3 (TUBB3) (natural protein)
chain: MREIVHIQAGQCGNQIGAKFWEVISDEHGIDPSGNYVGDSDLQLERISVYYNEASSHKYVPRAILVDLEPGTMDSVRSGAFGHLFRPDNFIFGQSGAGNNWAKGHYTEGAELVDSVLDVVRKECENCDCLQGFQLTHSLGGGTGSGMGTLLISKVREEYPDRIMNTFSVVPSPKVSDTVVEPYNATLSIHQLVENTDETYCIDNEALYDICFRTLKLATPTYGDLNHLVSATMSGVTTSLRFPGQLNADLRKLAVNMVPFPRLHFFMPGFAPLTARGSQQYRALTVPELTQQMFDAKNMMAACDPRHGRYLTVATVFRGRMSMKEVDEQMLAIQSKNSSYFVEWIPNNVKVAVCDIPPRGLKMSSTFIGNSTAIQELFKRISEQFTAMFRRKAFLHWYTGEGMDEMEFTEAESNMNDLVSEYQQYQDATAEEEGEMYEDDEEESEAQGPK

The target of assay [1] is HIV-1 envelope glycoprotein gp120, strain IIIB (HIV-1 (strain IIIB), UniProt P04578 33-511). Put plainly: SPR. In general terms: Surface plasmon resonance follows binding to a sensor surface in real time, without labels.
For assay [2], the target named is B1. Put plainly: SPR.

Experimental findings from PMC4828312 (Journal of neurochemistry, 2016) are described below.

As a reminder, the Kd is the free concentration of one partner at which half of the binding sites on the other are occupied at equilibrium, for simple one-to-one binding. As for B1, binding in assay [1] was characterised by a dissociation constant (Kd) of 7.5 nM.

On to NDMVEQMHEDIISLWDQSLK [Helix-A peptide of gp120], for which the binding result in assay [2] is on record as “binds”.
